From US20090148510A1 (Stanford University, published 2009)

B1: Fab 5 (Fab fragment of antibody 5) (Fab, V domains shown)
VH: EVQLQQSGAELARPGASVKLSCKASGYIFTDYYINWVRQRTGQGFEWIGEIYPGSGNIDYNERFKDKATLTADKSSSTAYMQLSSLTSEDSAVYFCVRGFGYWGQGTTLTVSS
VL: DIKMTQSPSSMYASLGERVTITCKASQDINSYLSWFQQKPGKSPKTLIYRANRLVDGVPSRFIGTGSGQDYSLTISSLDYEDMGIYYCLQYDEFPYTFGGGTKLEIKR
notes: Made by papain cleavage of purified mouse antibody 5 and purified by ion exchange (Mono Q) chromatography; also called Fab5 antibody; Fab 5 fragments
B2: antibody 5 (intact mouse monoclonal antibody) (antibody, V domains shown)
VH: B1 VH
VL: B1 VL
notes: Mouse IgG from hybridoma; also called Mab5; Mab5 IgG

Assays:
[1] = molecular target: T1, purified β2AR having an amino terminal Flag epitope tag and a carboxyl hexahistidine tag (UniProt P07550 1-413); test: isothermal titration calorimetry, detergent-solubilized β2AR, 25° C.
T1 construct: also called β2 adrenoreceptor; denatured β2AR (when treated with SDS); not shown: carboxyl hexahistidine tag (six His)
Protocol: ITC measurements were performed at 25° C. using a VP-ITC calorimeter (Microcal, Inc.). […] Titrations were initiated with a 3 μl injection, followed by a series of 8 μl injections (37 β₂AR and 31 for β₂AR buffer blank), with 240 s between injections. After subtracting the blank titration, the measured heat released upon binding was plotted against the Fab:β₂AR molar ratio, and the data were fitted to a single-site binding model to obtain the association constant Ka, enthalpy change ΔH, and stoichiometry n using the Origin software package¹ (Microcal, Inc.)

[2] = molecular target: T2, β2AR labeled at C265 with tetramethylrhodamine (UniProt P07550 1-413, tetramethylrhodamine on C265); test: antibody dose-response on fluorescence of β2AR-TMR (labeled at C265), 4 nM receptor
T2 construct: Detergent-solubilized (0.1% dodecylmaltoside) purified receptor; also called β2AR-TMR

Kd [1] [nM] | EC50 [2] [nM] | Binder
150 |  | B1
 | 23 | B2
